{
  "source": "paper PMC11098746",
  "about": "(2024)",
  "binders": {"B1": {"name": "ADP237 (protein)", "chain": "TKKKVSVSEINFDSAVDDVQWCGNNHMTVLVKTVKGRLYRSSDGGKIWTNIAGNLADKENNKADPSSNHMNEMTTVDLIMVNSVNKNIVLIIGNQKNHYISEDSGETFRLLNYQNKINFWQFHSTKTHWALVSSWTEACYSNDDNSGECMQTLSLTKDLGRTFQLIDIYVVQFNWGDKESHLEDTIYYTRHKNRNGHQQRFSGWSKDVDFVATHNFGKSVDVLVKQGNKFLISNGYIFVAKLNDVIKQTVNMMVSTDGGKTFNKANLPENIHEKSYTVLDTSEGSIMLHVNHGTSSEKINTGNVYISDASGLNYALSLPNNIRTSSGECEFDRVLSLDGVYIANFLDVNNEIKDEDLRFQNFKSAIEEDIAPFETNTEKRKKQYNKGKNEDAVRTVISFNKGGEWSYLKAPKVDSRGNKYECGDNCYLHLHGITNYHQYAPFYSIENAVGIIMGTGNVGSHLRYESDEVNTFLSRDGGVTWIEAHKGPYIYEYGDYGGLIVMADDLRKTNQIVFSWNEGQSWFDFELGQFSIDVDNIVAEPNSASVEFLVYGTRNDVGVLYHLDFNALGQPLCKGLWAADSVSSDYETWSPTSGNFNDKCILGRKITYTRRKQTSECFNGKDLKRTVDKKPCECTPEDYECETGFTRKIGSYECKPNDPTLTIEGCTSSSYFYANAYRKVPGDICVNGWVPEKVPVPCPSYAPFNKAAK", "modifications": "bait human Fc-tagged dimer; N-glycosylation sequons mutated in Plasmodium baits"}},
  "target": "T1, ADP375",
  "T1 chain": "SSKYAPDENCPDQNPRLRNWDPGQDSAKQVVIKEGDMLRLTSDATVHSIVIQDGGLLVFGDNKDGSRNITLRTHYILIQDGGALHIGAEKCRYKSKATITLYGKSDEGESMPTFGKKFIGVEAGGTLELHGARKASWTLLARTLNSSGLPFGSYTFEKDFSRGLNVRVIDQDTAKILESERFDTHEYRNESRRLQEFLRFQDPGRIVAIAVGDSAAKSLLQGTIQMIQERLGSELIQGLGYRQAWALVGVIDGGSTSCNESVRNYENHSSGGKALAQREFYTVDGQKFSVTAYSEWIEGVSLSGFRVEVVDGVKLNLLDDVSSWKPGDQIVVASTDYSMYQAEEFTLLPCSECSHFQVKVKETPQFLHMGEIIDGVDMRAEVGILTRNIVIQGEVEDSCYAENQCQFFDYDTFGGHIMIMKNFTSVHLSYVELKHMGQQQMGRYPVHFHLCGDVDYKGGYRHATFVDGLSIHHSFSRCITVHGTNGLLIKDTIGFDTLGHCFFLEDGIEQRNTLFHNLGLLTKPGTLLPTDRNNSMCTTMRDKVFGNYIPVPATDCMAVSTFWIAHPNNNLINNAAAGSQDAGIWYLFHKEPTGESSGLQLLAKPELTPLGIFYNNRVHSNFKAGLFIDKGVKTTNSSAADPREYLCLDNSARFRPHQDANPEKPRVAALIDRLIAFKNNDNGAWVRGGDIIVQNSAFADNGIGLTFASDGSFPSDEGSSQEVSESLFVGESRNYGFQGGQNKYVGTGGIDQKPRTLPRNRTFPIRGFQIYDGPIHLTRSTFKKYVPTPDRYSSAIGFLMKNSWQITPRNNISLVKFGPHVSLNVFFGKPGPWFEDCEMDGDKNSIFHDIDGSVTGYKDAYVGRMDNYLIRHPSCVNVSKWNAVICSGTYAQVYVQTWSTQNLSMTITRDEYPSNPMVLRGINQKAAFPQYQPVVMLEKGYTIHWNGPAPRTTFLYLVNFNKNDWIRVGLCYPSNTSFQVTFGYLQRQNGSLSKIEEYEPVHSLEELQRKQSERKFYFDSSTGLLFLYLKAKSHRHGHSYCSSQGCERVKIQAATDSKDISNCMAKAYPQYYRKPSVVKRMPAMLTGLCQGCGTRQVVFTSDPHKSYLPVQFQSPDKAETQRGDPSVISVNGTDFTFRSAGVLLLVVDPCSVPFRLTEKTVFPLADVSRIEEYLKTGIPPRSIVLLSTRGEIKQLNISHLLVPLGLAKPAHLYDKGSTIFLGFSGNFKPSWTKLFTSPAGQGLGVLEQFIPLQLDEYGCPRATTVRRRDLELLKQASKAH",
  "experiment": "AVEXIS screen signal:noise (double-corrected)",
  "data": [
    {"binder": "B1", "values": [
      {"measurement": "binding score", "value": 24.4}
    ]}
  ]
}
